Paper PMC4923902 (Scientific Reports, 2016)
Numbering of substitutions follows the chain as printed. In names and notes the source's numbering stands.

B1: arrestin I72NBD (natural protein, bovine, UniProt P08168 1-404, looked up)
chain: MKANKPAPNHVIFKKISRDKSVTIYLGKRDYIDHVERVEPVDGVVLVDPELVKGKRVYVSLTAAFRYGQEDCDVMGLSFRRDLYFSQVQVFPPVGASGATTRLQESLIKKLGANTYPFLLTFPDYLPSSVMLQPAPQDVGKSAGVDFEIKAFATHSTDVEEDKIPKKSSVRLLIRKVQHAPRDMGPQPRAEASFQFFMSDKPLRLAVSLSKEIYYHGEPIPVTVAVTNSTEKTVKKIKVLVEQVTNVVLYSSDYYIKTVAAEEAQEKVPPNSSLTKTLTLVPLLANNRERRGIALDGKIKHEDTNLASSTIIKEGIDKTVMGILVSYQIKVKLTVSGLLGELTSSEVATEVPFRLMHPQPEDPDTAKESFQDENFVFEEFARQNLKDAGEYKEEKTDQEAAMDE
modifications: NBD fluorophore (IANBD) on the cysteine at site 72
notes: recombinant bovine arrestin-1 mutant; also called arrestin-1 C63A, C128S, C143A, W194F, I72C labelled with IANBD; source: E. coli, purified
B2: arrestin I299B/L173W (natural protein, bovine, UniProt P08168 1-404, looked up)
chain: B1 chain with C72I, L173W, I299C
modifications: bimane fluorophore (monobromobimane) on the cysteine at site 299
notes: recombinant bovine arrestin-1 mutant; also called arrestin-1 C63A, C128S, C143A, W194F, L173W, I299C labelled with monobromobimane; source: E. coli, purified

How the values were obtained:
phosphorylated opsin [1] = target: T1, phosphorylated opsin (bovine, UniProt P02699 1-348, phosphorylated on the C-terminus by endogenous GRK1 (sites not given); no retinal (apo-protein)); experiment: site-directed steady-state fluorescence; 1 uM labelled arrestin with 6 uM Ops-P in ROS membranes, 50 mM HEPES pH 8, low salt, 20 °C; conditions: one partner purified
T1 construct: bovine opsin (apo-protein of rhodopsin), endogenous in ROS membranes; in isolated, washed ROS disc membranes, not on whole cells; also called Ops-P; OpsP
T1 sequence (P02699 whole entry): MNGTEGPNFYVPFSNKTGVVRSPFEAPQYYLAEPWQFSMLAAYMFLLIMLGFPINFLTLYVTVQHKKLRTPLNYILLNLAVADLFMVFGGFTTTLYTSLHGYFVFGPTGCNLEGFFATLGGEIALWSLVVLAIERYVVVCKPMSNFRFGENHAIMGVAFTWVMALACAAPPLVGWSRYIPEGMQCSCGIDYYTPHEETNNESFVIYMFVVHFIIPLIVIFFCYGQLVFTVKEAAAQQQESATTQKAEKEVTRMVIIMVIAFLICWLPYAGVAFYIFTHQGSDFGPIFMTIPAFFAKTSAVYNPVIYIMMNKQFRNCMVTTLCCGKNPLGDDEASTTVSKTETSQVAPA

phosphorylated opsin [2] = target: T1, phosphorylated opsin; experiment: site-directed steady-state fluorescence; 1 uM labelled arrestin with 6 uM receptor in ROS membranes, 50 mM HEPES pH 7, low salt, 20 °C; conditions: one partner purified

fluorescence increase relative to that with Meta II-P (phosphorylated opsin [1]) | fluorescence increase relative to that with Meta II-P (phosphorylated opsin [2]) | fluorescence change relative to that with Meta II-P (phosphorylated opsin [1]) | Binder
~18% | ~45% | – | B1
– | – | ~38% | B2
